Reference: US20210087291A1

How the values were obtained:
[1] = target: human TIM-3 on cells (human) (UniProt Q8TDQ0); assay: flow cytometry, human CD14+ monocytes donor2
[2] = target: cynomolgus TIM-3 on isolated cyno CD14+ monocytes (cynomolgus); assay: flow cytometry, cyno CD14+ monocytes cyno1
[3] = target: human TIM-3 on cells (human) (UniProt Q8TDQ0); assay: flow cytometry, human CD14+ monocytes donor3
[4] = target: human TIM-3 on cells (human) (UniProt Q8TDQ0); assay: flow cytometry, human CD14+ monocytes donor1
[5] = target: cynomolgus TIM-3 on isolated cyno CD14+ monocytes (cynomolgus); assay: flow cytometry, cyno CD14+ monocytes cyno2
[6] = target: cynomolgus TIM-3 on isolated cyno CD14+ monocytes (cynomolgus); assay: flow cytometry, cyno CD14+ monocytes cyno3
[7] = target: human TIM-3 on cells (human) (UniProt Q8TDQ0); assay: FACS competition on RPMI-8226, competitor TIM3-0026
[8] = target: human TIM-3 on cells (human) (UniProt Q8TDQ0); assay: FACS competition on RPMI-8226, competitor TIM3-0038
[9] = target: human TIM-3 on cells (human) (UniProt Q8TDQ0); assay: FACS competition on RPMI-8226, competitor TIM3-0018
[10] = target: human TIM-3 on cells (human) (UniProt Q8TDQ0); assay: FACS competition on RPMI-8226, competitor TIM3-0016
[11] = target: Tim3-ECD-His-Biotin (human) (UniProt Q8TDQ0); assay: ELISA, human Tim3
[12] = target: human TIM-3 on cells (human) (UniProt Q8TDQ0); assay: FACS competition on RPMI-8226, competitor TIM3-0022
[13] = target: huFc fused dimeric human Tim3-ECD (human) (UniProt Q8TDQ0); assay: SPR Biacore, antibody captured by anti-mouse IgG
[14] = target: monomeric human Tim3-ECD (human) (UniProt Q8TDQ0); assay: SPR Biacore, antibody captured by anti-mouse IgG
[15] = target: monomeric cyno Tim3-ECD (cynomolgus); assay: SPR Biacore, antibody captured by anti-mouse IgG
Sequence of monomeric cyno Tim3-ECD (cynomolgus) (chain, as listed by the source, form in doubt): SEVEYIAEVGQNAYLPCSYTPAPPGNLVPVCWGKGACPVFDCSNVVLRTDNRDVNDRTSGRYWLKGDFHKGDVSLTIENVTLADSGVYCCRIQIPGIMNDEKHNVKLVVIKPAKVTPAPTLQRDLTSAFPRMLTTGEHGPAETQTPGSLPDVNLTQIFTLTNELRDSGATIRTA

[16] = target: human TIM-3 on cells (human) (UniProt Q8TDQ0); assay: FACS competition on RPMI-8226, competitor TIM3-0028
[17] = target: Tim3-ECD-His-Biotin (human) (UniProt Q8TDQ0); assay: ELISA, human Tim3; EC50 relative to the sample's max value
[18] = target: human TIM-3 on cells (human) (UniProt Q8TDQ0); assay: cell ELISA, CHO-Tim3
[19] = target: human TIM-3 on cells (human) (UniProt Q8TDQ0); assay: cell ELISA, CHO-Tim3; EC50 relative to the sample's max value
[20] = target: human TIM-3 on cells (human) (UniProt Q8TDQ0); assay: cell-based or functional assay
[21] = target: cynomolgus Tim3 (ELISA) (cynomolgus); assay: ELISA, cyno Tim3
Sequence of cynomolgus Tim3 (ELISA) (cynomolgus) (chain, as listed by the source, form in doubt): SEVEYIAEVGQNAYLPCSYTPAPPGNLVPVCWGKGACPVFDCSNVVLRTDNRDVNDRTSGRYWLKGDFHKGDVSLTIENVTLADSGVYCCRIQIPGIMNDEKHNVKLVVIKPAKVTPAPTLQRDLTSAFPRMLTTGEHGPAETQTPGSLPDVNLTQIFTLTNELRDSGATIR

[22] = target: cynomolgus Tim3 (ELISA) (cynomolgus); assay: ELISA, cyno Tim3; EC50 relative to the sample's max value

Substance | specific binding MFI [1] [MFI] | MFI [2] [MFI] | specific binding MFI [3] [MFI] | specific binding MFI [4] [MFI] | MFI [5] [MFI] | MFI [6] [MFI] | Max % inhibition of binding [7] [%] | Max % inhibition of binding [8] [%] | Max % inhibition of binding [9] [%] | Max % inhibition of binding [10] [%] | also measured
M-IgG1 (isotype control) (antibody) | 55 | 72 | 213 | 144 | 82 | 83 | – | – | – | – | –
M-IgG2b (isotype control) (antibody) | 13 | – | 0 | 0 | – | – | – | – | – | – | –
Rat-IgG2A (isotype control) (antibody) | 68 | 84 | 70 | 71 | 86 | 91 | – | – | – | – | –
anti-TIM3 reference antibody 344823 (R&D Systems) | 917 | 158 | 814 | 1010 | 121 | 143 | 3 | 99 | 0 | 0 | –
anti-TIM3 reference antibody F38-2E2 (BioLegend) | 493 | 135 | 460 | 516 | 136 | 124 | 2 | 94 | -6 | -7 | inflexion point [11]: 86.3 ng/mL; Max % inhibition of binding [12]: 77%; Kd [13]: 7.5 nM; Kd [14]: 13.6 nM; Kd [15]: 168 nM; Max % inhibition of binding [16]: 75%; EC50 [17]: 0.0732 µg/mL; inflexion point [18]: 224 ng/mL; EC50 [19]: 0.35 µg/mL; IFN-gamma release in MLR at 1 µg/ml, % of IL-2 control [20]: 7%; IFN-gamma release in MLR at 10 µg/ml, % of IL-2 control [20]: 26%; IFN-gamma release in MLR at 40 µg/ml, % of IL-2 control [20]: 36%; inflexion point [21]: 210000 ng/mL; EC50 [22]: 0.423 µg/mL
